According to patent US20170327596A1:

Tests used:
[1] = target: pHuD peptide presented by HLA-A2 on T2 cells (human); assay: cell-based or functional assay
[2] = target: HLA/pHuD complex (HLA-A0201 with the modified peptide pHuD), HLA/peptide complex used in surface plasmon resonance (human); assay: surface plasmon resonance, soluble TCR and HLA/peptide complex
[3] = target: HLA/pTax complex (HLA-A0201 with the pTax peptide of HTLV-1 Tax), HLA/peptide complex used in surface plasmon resonance (human); assay: as above

Substance | kinetic of CD107 upregulation [1] | peptide needed to trigger a CD107 response [1] | Kd [2] | Kd [3] | half-life t1/2 [3]
Tax-TCR expressed on transduced Jurkat cells or primary human T cells (pMP71 retroviral construct) | 4 h | 10 fold | – | – | –
wild type Tax-TCR, soluble TCR molecule (HLA-A0201-restricted TCR specific for the pTax peptide of HTLV-1 Tax) | – | – | 123 µM | 1.8 µM | 9.3 s
